Test results as given in US6534629B1, “Nematode-extracted serine protease inhibitors and anticoagulant proteins” (priority 1994, dated 2003).
Where two headings read alike, the source gives them in different places. Marks after values point to notes of the source that are not given here.

Key:
[1] = tested on: FeCl3-induced platelet-dependent arterial thrombosis; assay: Rat model of FeCl3-induced platelet-dependent arterial thrombosis, intravenous administration; type: in vivo; details: dose that prevents complete thrombotic occlusion in 50% of animals
Method: The antithrombotic (prevention of thrombus formation) properties of NAP were evaluated using the established experimental rat model of acute vascular thrombosis.
The rat FeCl3 model is a well characterized model of platelet dependent, arterial thrombosis which has been used to evaluate potential antithrombotic compounds. Kurz, K. D., Main, B. W., and Sandusky, G. E., Thromb. Res., 60: 269-280 (1990). In this model a platelet-rich, occlusive thrombus is formed in a segment of the rat carotid artery treated locally with a fresh solution of FeCl3 absorbed to a piece of filter paper. The FeCl3 is thought to diffuse into the treated segment of artery and cause de-endothelialization of the affected vessel surface. […] The net result is occlusive thrombus formation. The effect of a test compound on the incidence of occlusive thrombus formation following application of FeCl3 is monitored by ultrasonic flowtometry and is used as the primary end point. […]
Following surgery the animals were randomized in either a control (saline) or treatment (recombinant AcaNAP5) group. […] Blood pressure, blood flow, heart rate, and respiration were monitored for 60 minutes. The incidence of occlusion (defined as the attainment of zero blood flow) was recorded as the primary end point.

[2] = tested on: normal citrated human plasma; assay: Prothrombin time (PT) assay; type: biochemical; details: for Doubling Concentration (nM) in the PT: concentration that doubled the control clotting time (12.1 seconds) of normal human plasma; for coagulation time of human plasma (Prothrombin Time Assay), in words: P. pastoris culture supernatant / growth media
Method: (§1) The ex vivo anticoagulant effects of NAPs of the present invention in human plasma were evaluated by measuring the prolongation of the activated partial thromboplastin time (aPTT) and prothrombin time (PT) over a broad concentration range of each inhibitor.
(§2) Fresh frozen pooled normal citrated human plasma was obtained from George King Biomedical, Overland Park, Kans. Respective measurements of aPTT and PT were made using the Coag-A-Mate RA4 automated coagulometer (General Diagnostics, Organon Technica, Oklahoma City, Okla.) using the Automated aPTT Platelin® reagent (Organon Technica, Durham, N.C.) and Simplastin® Excel (Organon Technica, Durham, N.C.) respectively, as initiators of clotting according to the manufacturer's instructions.
(§3) The assays were conducted by making a series of dilutions of each tested NAP in rapidly thawed plasma followed by adding 200 microliters or 100 microliters of the above referenced reagents to the wells of the assay carousel for the aPTT or PT measurements, respectively. Alternatively, the NAPs were serially diluted into HBSA and 10 μl of each dilution were added to 100 μl of normal human plasma in the wells of the Coag-A-Mate assay carousel, followed by addition of reagent.
Concentrations of NAP were plotted against clotting time, and a doubling time concentration was calculated, i.e., a specified concentration of NAP that doubled the control clotting time of either the PT or the aPTT. The control clotting times (absence of NAP) in the PT and APTT were 12.1 seconds and 28.5 seconds, respectively.

[3] = tested on: normal citrated human plasma; assay: Activated partial thromboplastin time (aPTT) assay; type: biochemical; details: concentration that doubled the control clotting time (28.5 seconds) of normal human plasma
Method: as §1, §2, §3
Concentrations of NAP were plotted against clotting time, and a doubling time concentration was calculated, i.e., a specified concentration of NAP that doubled the control clotting time of either the PT or the aPTT.

[4] = molecular target: human rFVIIa/rTF/PLV complex; assay: Factor VIIa/Tissue factor amidolytic assay; type: biochemical
Method: Lyophilized, purified, recombinant human factor VIIa was obtained from BiosPacific, Inc. (Emeryville, Calif.), and reconstituted in HBS (10 mM HEPES, pH 7.5, 150 mM sodium chloride) prior to use. Purified human Factor X was obtained from Enzyme Research Laboratories, Inc. (South Bend, Ind.) and Factor Xa (free FXa) was activated and prepared from Factor X as described (Bock, P. E., Craig, P. A., Olson, S. T., and Singh, P. Arch. Biochem. Biophys. 273: 375-388 (1989)). Active site-blocked human Factor Xa (EGR-FXa), which had been irreversibly inactivated with L-Glutamyl-L-glycyl-L-arginyl chloromethylketone, was obtained from Haematologic Technologies, Inc. (Essex Junction, Vt.). Recombinant human tissue factor (rTF) was produced by a baculovirus-expression system, and purified to homogeneity by monoclonal antibody affinity chromatography (Corvas International, Inc., San Diego, Calif.).
The purified rTF apoprotein was incorporated into phospholipid vesicles (rTF/PLV), consisting of phosphotidyl choline (75%, w/v) and phosphotidyl serine (25%, w/v) in the presence of detergent, as described by Ruf et al. (Ruf, W., Miles, D. J., Rehemtulla, A., and Edgington, T. S. Methods in Enzymology 222: 209-224 (1993)). The phospholipids were purchased from Avanti Polar Lipids, (Alabaster, Ala.). The buffer used for all assays was HBSA, HBS containing 0.1% (w/v) bovine serum albumin. All reagents were obtained from Sigma Chemical Cb. (St. Louis, Mo.), unless otherwise indicated.
rFVIIa/rTF amidolytic activity was determined using the chromogenic substrate S-2288 (H-D-isoleucyl-L-prolyl-L-arginine-p-nitroaniline), obtained from Kabi Pharmacia Hepar, Inc. (Franklin, Ohio). The substrate was reconstituted in deionized water prior to use. rFVIIa and rTF/PLV were combined in a polypropylene test tube, and allowed to form a complex for 10 min in HBSA, containing 3 mM CaCl2. […] Following an incubation of 30 min at ambient temperature, the triplicate reactions were initiated by adding 50 μL of S-2288.
The amidolytic activity of rFVIIa/rTF/PLV was measured as a linear increase in the absorbance at 405 nm over 10 min (velocity), using a Thermo Max® Kinetic Microplate Reader (Molecular Devices, Palo Alto, Calif.), under steady-state conditions, where less than 5% of the substrate was consumed. Ratios of inhibited pre-equilibrium, steady-state velocities (Vi), in the presence of NAP, to the uninhibited velocity in the presence of free fXa alone (Vo) were plotted against the corresponding concentrations of NAP.

[5] = tested on: acute coronary artery thrombosis; assay: Pig model of acute coronary artery thrombosis; type: in vivo; details: for Time of Occulsion: non-occluded vessels assigned 240 minutes
Text: The protocol used in these studies is a modification of a thrombosis model which has been reported previously (Lucchesi, B. R., et al., (1994), Brit. J. Pharmacol. 113: 1333-1343).
Animals were anesthetized and instrumented with arterial and venous catheters (left common carotid and external jugular, respectively). A thoracotomy was made in the 4th intercostal space and the heart was exposed. The left anterior descending (LAD) coronary artery was isolated from the overlying connective tissue and was instrumented with a Doppler flow probe and a 17 gauge ligature stenosis. An anodal electrode also was implanted inside the vessel.
Baseline measurements were taken and the NAP or placebo to be tested was administered via the external jugular vein. Five minutes after administration, a direct current (300 μA, DC) was applied to the stimulating electrode to initiate intimal damage to the coronary endothelium and begin thrombus formation. Current continued for a period of 3 hours. Animals were observed until either 1 hour after the cessation of current or the death of the animal, whichever came first.
The incidence of occlusion in the animals receiving placebo was 8/8 (100%). Time to occlusion in placebo treated animals was 66.6±7.5 min. (mean±sem).

[6] = No FXa Addition, read-out: Ki* (pM) Amidolytic Assay, No FXa Addition

## rTAP: recombinant Tick Anticoagulant Peptide, 60 amino acid factor Xa inhibitor from Ornithodoros moubata (YNRLCIKPRDWIDECDSNEGGERAYFRNGKGGCDSFWICPEDHTGADYYSSYRDCFNACI; UniProt P17726 1-60, looked up)
[1]
  ED50: 0.6 mg/kg

## CC1CNc2c(cccc2S(=O)(=O)N[C@@H](CCCNC(=N)N)C(=O)N2CC[C@@H](C)C[C@@H]2C(=O)O)C1 (some centres unmarked) [Argatroban]
[1]; read-out: ED50
  ED50: 3.8 mg/kg

B1: AceNAP4: NAP of Ancylostoma ceylanicum with two NAP domains, SEQ. ID. NO. 62 (protein)
chain: KPNNVMTNACGLNEYFAECGNMKECEHRCNEEENEERDEERITACLIRVCFRPGACVCKDGFYRNRTGSCVEEDDCEYENMEFITFAPEVPICGSNERYSDCGNDKQCERKCNEDDYEKGDEACRSHVCERPGACVCEDGFYRNKKGSCVESDDCEYDNMDFITFAPETSR
[2]
  Doubling Concentration (nM) in the PT: 40 ± 4 nM
[3]
  Doubling Concentration (nM) in the aPTT: 115 ± 12 nM

B2: Pro-AcaNAP5: AcaNAP5 with four additional N-terminal amino acids, SEQ. ID. NO. 7, made in COS cells (protein)
chain: RTVRKAYPECGENEWLDDCGTQKPCEAKCNEEPPEEEDPICRSRGCLLPPACVCKDGFYRDTVIGDCVREEECDQHEIIHV
[2]
  Doubling Concentration (nM) in the PT: 21.9 nM
[3]
  Doubling Concentration (nM) in the aPTT: 31.0 nM

B3: AcaNAPc2: NAP of Ancylostoma caninum isolated by phage display, SEQ. ID. NO. 59; fVIIa/TF inhibitor (protein)
chain: KATMQCGENEKYDSCGSKECDKKCKYDGVEEEDDEEPNVPCLVRVCHQDCVCEEGFYRNKDDKCVSAEDCELDNMDFIYPGTRN
[2]
  Doubling Concentration (nM) in the PT: 15 ± 1 nM
[4]; [6]
  Ki: > 1500 pM

B4: AcaNAP42: NAP of Ancylostoma caninum, SEQ. ID. NO. 47; AcaNAP31, 42 and 46 encode identical proteins (protein)
chain: KSLWDQKCGENERLDCGNQKDCERKCDDKRSEEEIMQACLTRQCLPPVCVCEDGFYRNDNDQCVDEEECNMEFITFAP
[2]
  coagulation time of human plasma (Prothrombin Time Assay), in words: prolongation of the coagulation time of human plasma

B5: AcaNAPc2P: AcaNAPc2 with an additional proline residue at the C-terminus (protein)
chain: KATMQCGENEKYDSCGSKECDKKCKYDGVEEEDDEEPNVPCLVRVCHQDCVCEEGFYRNKDDKCVSAEDCELDNMDFIYPGTRNP
[2]
  coagulation time of human plasma (Prothrombin Time Assay), in words: prolongation of the coagulation time of human plasma
[4]
  in vitro activity in inhibitory assays of rFVIIa/rTF activity, compared with AcaNAPc2: substantially the same as AcaNAPc2
[5]; 0.01 mg/kg i.v.
  Incidence of Occlusion: 6/6
  Total Blood Loss: 1.6 ± 0.3 mL
  Time of Occulsion: 105 ± 6.2 min
[5]; 0.03 mg/kg i.v.
  Incidence of Occlusion: 4/6
  Total Blood Loss: 4.9 ± 1.4 mL
  bleeding, in words: did not produce significant elevations in bleeding
  time to occlusion, in words: significantly prolonged
  Time of Occulsion: 159 ± 27 min
[5]; 0.10 mg/kg i.v.
  Incidence of Occlusion: 2/6†
  Total Blood Loss: 17.6 ± 7.9 mL
  Time of Occulsion: 215 ± 25 min

B6: AcaNAP6: NAP of Ancylostoma caninum, SEQ. ID. NO. 6; recombinant, made in Pichia pastoris (protein)
chain: KAYPECGENEWLDVCGTKKPCEAKCSEEEEEDPICRSFSCPGPAACVCEDGFYRDTVIGDCVKEEECDQHEIIHV
[2]
  Doubling Concentration (nM) in the PT: 37 ± 3 nM
[3]
  Doubling Concentration (nM) in the aPTT: 62 ± 0 nM
[4]; [6]
  Ki: > 1500 pM
[4]; Plus EGR-FXa (2.5 nM), read-out: Ki* (pM) Amidolytic Assay, Plus EGR-FXa
  Ki: > 1500 pM
